According to patent publication US6696546B1, “Peptide that kills growing but not stationary cells” (The Trustees of Columbia University in the City of New York, priority 2000, dated 2004):

Legend:
HaTCat cells = experiment: DNA content by propidium iodide staining and FACS, HaTCat cells; format: cell-based, human; conditions: for S-phase population of cells: confluent (resting) HaTCat cells
Source text: A graphical representation of DNA content of cells as collected by propidium iodide staining and subsequent FACS analysis. G0/G1, S, and G2M phases are depicted of cells either treated or not treated with cell permeable peptides. The percentage of untreated cell in a given phase are in white, PAP's CRM in (SEQ ID NO: 3) black, p21's in gray (SEQ ID NO: 5), scrambled in horizontal stripes (SEQ ID NO: 4), internalization sequence alone in vertical stripes (SEQ ID NO: 2).
(A) PAP's CRM (SEQ ID NO: 3) kills growing HaTCats, but stimulates S-phase entry of stationary HaTCats. The bar graph depicts the fold induction over non-treated cells of sub-G1 DNA content and S-phase DNA content of four different populations of cells. The percentage of cells found S-phase of each population is noted below the bar graph. Sub-G1 DNA content and S-phase DNA content are depicted of cells either treated or not treated with cell permeable peptides. The percentages of untreated cell in a given phase are in white, PAP's CRM (SEQ ID NO: 3) in black, p21's in gray (SEQ ID NO: 5), and scrambled in stripes (SEQ ID NO: 4).
Panel B of FIG. 7 is a graphical representation of DNA content of cells, derived from propidium iodide staining and subsequent the fluorescence-activated cell sorter (FACS) analysis. In this experiment, an immortalized human karitinocyte cell line (HaTCat) was treated with the cell-membrane permeable form of PAP's CRM (SEQ ID NO:3). […] This is not observed with the scrambled sequence (SEQ ID NO:4), nor the p21 (SEQ ID NO:5) nor the penetratin sequence alone (SEQ ID NO:2).
FIG. 8 is a graphical representation of the fold induction, over untreated control cells, of sub-G1 DNA content and S-phase DNA content of four different populations of HaTCat cells. These populations vary in their proliferation rates due to their confluency, starting with the least confluent population of cells, with 30% in S-phase, to the most confluent population, with only 3.5% in S-phase. Cycling cells, with over 30% of cells in S-phase, die when treated with the SEQ ID NO:3.
(§1) After treatment with or without cell membrane permeable peptides (Synpep), cells were trypsinized, centrifuged and washed in PBS. Cell were than fixed with methanol and kept at −20° C. for 40 min or overnight. After washing and equilibration in PBS, the cell pellet was resuspended in 1 ml of staining solution containing 50 μg of RNase A and 0.5 μg of propidium iodide per ml in PBS, and kept at room temperature for over 30 minutes. The cells were then applied to the fluorescence-activated cell sorter (FACSCalibur; Becton Dickson). The FACSCalibur program was used to sort and count the cells, and the Modfit program was used to calculate the percentage of cells in the G0/G1, S, and G2/M phases.

[1] = target: cyclin D1-cdk2 association (Homo sapiens, UniProt P24385); experiment: GST-cyclin D1 binding assay with cdk2; conditions: peptide 9 μM and 20 μM; Western blot
MEFs [2] = experiment: DNA content by propidium iodide staining and FACS, mouse embryo fibroblasts; format: cell-based; conditions: sub-confluent MEFs; for percentage of cells with S-phase DNA content / percentage of cells with sub-G1 DNA content: one hour, SEQ ID NO:3 1.87-30 μM, controls 30 μM
Protocol: (A) PAP's CRM stimulates both the percentage of cells with sub-G1 DNA content and S-phase DNA content in a dose dependent manner. DNA content as measured by FACS analysis is graphically represented.
(B) PAP's CRM stimulates cell death over time. The percentage of cells with a sub-G1 DNA content with or without treatment with 30 μM of PAP's CRM (SEQ ID NO: 3) for varying lengths of time is shown.
(C) The percents of cells with G0/G1 (in black), S (in gray), and G2/M (in white) DNA contents of the same population of cells in (B) are depicted.
Panel A depicts the MEF's response to a concentration curve of SEQ ID NO:3. […] After a one hour incubation, cells were harvested for propidium iodine staining and subsequent FACS analysis.
To further study the MEF's reactions to the membrane permeable peptide, SEQ ID NO:3, and to determine if the increase in S-phase depicts a stimulation or inhibition of proliferation, treatment with one concentration was followed at varying time points. Sub-confluent MEFs were treated with 30 μM SEQ ID NO:3, harvested at different time points, and their DNA content was analyzed by propidium iodide staining and subsequent FACS analysis. FIG. 10 panel B depicts the percentage of death initiated over time, as measured by sub-G1 DNA content. 30% of the cells die after the first hour of treatment, 50% by the forth. […], depicts the cell cycle analysis over time of those cells that are not dying. Here, the stimulation of the cell cycle over time by SEQ ID NO:3, is clearly seen, ruling out an inhibitory effect. In the first hour, 25% of the cycling cells are induced into S-phase, and in time, into G2/M and back into G1.
as §1

cyclin A/cdk2 = cyclin A/cdk2 (Homo sapiens, UniProt P20248); experiment: in vitro kinase assay, pRB phosphorylation by cyclin A/cdk2; format: biochemical; conditions: peptide 9 μM and 18 μM; for pRB phosphorylation by cyclin A/cdk2: γ-32P ATP, SDS-PAGE, autoradiography
MEFs [3] = experiment: DNA content by propidium iodide staining and FACS, mouse embryo fibroblasts; format: cell-based; conditions: MEFs with pRB, after one hour of treatment, duplicate
pRB knock out MEFs = experiment: DNA content by FACS, pRB knock out mouse embryo fibroblasts; format: cell-based
Source text: (A) A graphical representation of the fold induction of sub-G1 DNA content in cells with or without pRB, as indicated below the graph. […] (B) A graphical representation of the fold induction of S-phase DNA content in the same cells.
The ability of SEQ ID NO:3 to stimulate both death and proliferation in mouse embryo fibroblasts, allows us to test the model, wherein pRB inhibits cell death after treatment with SEQ ID NO:3, thereby allowing for stimulation of proliferation (FIG. 9). In the absence of pRB, cells would no longer have the anti-apoptotic activity of pRB, and treatment with SEQ ID NO:3 would lead only to cell death. In the experiment shown in FIG. 11, two genetically identical populations of cells were used, except that one was pRB minus, by way of knock out technology. The fold inductions of both sub-G1 and S-phase are represented in FIG. 11. Upon treatment with SEQ ID NO:3, here done in duplicate, the cells with pRB show at least a two-fold induction of S-phase after one hour of treatment. The cells without pRB show none, but therefore a dramatic (up to 50 fold) induction of death.
After treatment with or without cell membrane permeable peptides (Synpep), cells were trypsinized, centrifuged and washed in PBS. […] The cells were then applied to the fluorescence-activated cell sorter (FACSCalibur; Becton Dickson). […]

Wi38 cells = experiment: DNA content by propidium iodide staining and FACS, Wi38 cells; format: cell-based, human
[4] = target: PAP-cyclin B1 interaction (Homo sapiens, UniProt P14635); experiment: GST-cyclin B1 pull-down assay of PAP binding
Sequence of PAP-cyclin B1 interaction (P14635 whole entry): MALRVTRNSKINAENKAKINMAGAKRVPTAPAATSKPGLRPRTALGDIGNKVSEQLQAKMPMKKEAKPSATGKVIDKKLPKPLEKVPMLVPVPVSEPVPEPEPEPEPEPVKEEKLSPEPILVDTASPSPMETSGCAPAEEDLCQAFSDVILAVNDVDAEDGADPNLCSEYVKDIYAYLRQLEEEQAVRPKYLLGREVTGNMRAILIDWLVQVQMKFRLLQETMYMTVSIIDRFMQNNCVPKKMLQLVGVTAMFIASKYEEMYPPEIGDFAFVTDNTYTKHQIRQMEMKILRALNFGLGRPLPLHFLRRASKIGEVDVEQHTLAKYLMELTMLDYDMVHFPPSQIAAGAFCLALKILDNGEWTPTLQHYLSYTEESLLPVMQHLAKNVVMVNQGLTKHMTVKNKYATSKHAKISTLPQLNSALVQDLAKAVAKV

cyclin B1/cdc2 = cyclin B1/cdc2 (Homo sapiens, UniProt P14635); experiment: in vitro kinase assay, pRB phosphorylation by cyclin B1/cdc2; format: biochemical; conditions: peptide 18 μM
Sequence of cyclin B1/cdc2 (P14635 whole entry): as above
Sequence of cyclin B1/cdc2 (P06493 whole entry partner): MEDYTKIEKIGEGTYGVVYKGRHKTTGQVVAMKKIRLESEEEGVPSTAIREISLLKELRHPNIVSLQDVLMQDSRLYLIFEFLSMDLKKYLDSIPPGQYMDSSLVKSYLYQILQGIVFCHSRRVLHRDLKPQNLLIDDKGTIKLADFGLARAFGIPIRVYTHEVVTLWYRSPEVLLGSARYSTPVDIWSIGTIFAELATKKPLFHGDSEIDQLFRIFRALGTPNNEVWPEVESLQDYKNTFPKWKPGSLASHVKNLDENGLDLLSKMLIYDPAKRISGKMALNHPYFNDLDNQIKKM

Substance: LRSGIKVI (scrambled sequence) [SEQ ID NO:4, fused to penetratin in cell tests, reference compound]
- S-phase population of cells (HaTCat cells): not observed
- presence of cdk2 in the eluate of GST-cyclin D1 [1]: without significant effect
- percentage of cells with S-phase DNA content (MEFs [2]): No effects
- percentage of cells with sub-G1 DNA content (MEFs [2]): No effects
- pRB phosphorylation by cyclin A/cdk2 (cyclin A/cdk2): no effect

Substance: SEQ ID NO:3: 8-mer peptide (SEQ ID NO:1) fused to penetratin (SEQ ID NO:2); cell-membrane permeable form of PAP's CRM (RQIKIWFQNRRMKWKKSKIRILVG; poly(A) polymerase cyclin recognition motif fued to Drosohilia Antennapedia homeodomain residues)
- fold induction of S-phase (MEFs [3]): two
- S-phase population of cells (HaTCat cells): dramatic increase
- cell death (sub-G1 DNA content) (HaTCat cells; cycling HaTCat cells, over 30% of cells in S-phase): die
- cell death (sub-G1 DNA content) (HaTCat cells; most confluent HaTCat population, 3.5% in S-phase): cell death is in fact inhibited
- cells that die (sub-G1 DNA content) (MEFs [2]; 30 μM, after the first hour): 30%
- cells that die (sub-G1 DNA content) (MEFs [2]; 30 μM, by the fourth hour): 50%
- cycling cells induced into S-phase (MEFs [2]; 30 μM, in the first hour): 25%
- percentage of cells with S-phase DNA content (MEFs [2]): dramatically increased
- percentage of cells with sub-G1 DNA content (MEFs [2]): dramatically increased
- fold induction of death (sub-G1 DNA content) (pRB knock out MEFs): up to 50 fold
- fold induction of S-phase (pRB knock out MEFs; MEFs without pRB, after one hour of treatment): none
- Wi38 death (sub-G1 DNA content) (Wi38 cells; populations of varying confluency): able to induce Wi38 death in a growth dependent manner
- decrease in fold induction of sub G1 DNA content (Wi38 cells; with the increase in confluency and decrease in growth): 30 fold

Substance: SKIRILVG (poly(A) polymerase cyclin recognition motif) [SEQ ID NO:1, synthetic 8-mer peptide spanning PAP's cyclin recognition motif (CRM)]
- PAP I-GST-cyclin B1 binding ([4]; 2, 5, 10 and 20 μM peptide): dose-dependent enhancement
- association of purified bacterial his-PAP I with GST-cyclin B1 ([4]; 2, 10 and 20 μM peptide, Western blot with anti-PAP antibody): strongly stimulated
- input PAP bound to GST-cyclin B1 ([4]; highest peptide concentration, purified bacterial his-PAP I): ~100%
- presence of cdk2 in the eluate of GST-cyclin D1 [1]: significantly increased
- cyclin B1 autophosphorylation (cyclin B1/cdc2): not affected
- phosphorylation of pRB by cyclin B1/cdc2 (cyclin B1/cdc2): strongly and specifically inhibited
- cyclin A phosphorylation in the same reaction mixture (cyclin A/cdk2; internal control for specificity): not cyclin A phosphorylation
- pRB phosphorylation by cyclin A/cdk2 (cyclin A/cdk2): effectively inhibited
